B1: Ephrin-B1 (Xenopus laevis (African clawed frog)), O13097 (parent)
chain: MEGLRRLLGLLLVLYRLCSALGKNLEPVTWNSQNPRFISGKGLVLYPEIGDRLDIICPKGDSSQPYEYYKLYMVRRDQLEACSTVIDPNVLVTCNQPGKEYRFTIKFQEFSPNYMGLEFRRNQDYYITSTSNSTLQGLENREGGVCQTRSMKIIMKVGQDPNAVPPEQLTTTRPSKEADNTGKIATFGPWNGPVENPGKSDTNLSDKPTAGGGVDGFFNSKIAVFAAIGAGCVIFILIIIFLVVLLIKIRKRHRKHTQQRAAALSLSTLASPKCSGNAGSEPSDIIIPLRTTENNYCPHYEKVSGDYGHPVYIVQEMPPQSPANIYYKV
B2: Signal transducer and activator of transcription 3 (Rattus norvegicus (Rat)), P52631 (parent)
chain: MAQWNQLQQLDTRYLEQLHQLYSDSFPMELRQFLAPWIESQDWAYAASKESHATLVFHNLLGEIDQQYSRFLQESNVLYQHNLRRIKQFLQSRYLEKPMEIARIVARCLWEESRLLQTAATAAQQGGQANHPTAAVVTEKQQMLEQHLQDVRKRVQDLEQKMKVVENLQDDFDFNYKTLKSQGDMQDLNGNNQSVTRQKMQQLEQMLTALDQMRRSIVSELAGLLSAMEYVQKTLTDEELADWKRRQQIACIGGPPNICLDRLENWITSLAESQLQTRQQIKKLEELQQKVSYKGDPIVQHRPMLEERIVDLFRNLMKSAFVVERQPCMPMHPDRPLVIKTGVQFTTKVRLLVKFPELNYQLKIKVCIDKDSGDVAALRGSRKFNILGTNTKVMNMEESNNGSLSAEFKHLTLREQRCGNGGRANCDASLIVTEELHLITFETEVYHQGLKIDLETHSLPVVVISNICQMPNAWASILWYNMLTNNPKNVNFFTKPPIGTWDQVAEVLSWQFSSTTKRGLSIEQLTTLAEKLLGPGVNYSGCQITWAKFCKENMAGKGFSFWVWLDNIIDLVKKYILALWNEGYIMGFISKERERAILSTKPPGTFLLRFSESSKEGGVTFTWVEKDISGKTQIQSVEPYTKQQLNNMSFAEIIMGYKIMDATNILVSPLVYLYPDIPKEEAFGKYCRPESQEHPEADPGSAAPYLKTKFICVTPTTCSNTIDLPMSPRTLDSLMQFGNNGEGAEPSAGGQFESLTFDMDLTSECATSPM
partner: B1 chain

Variants of: B1
Conditions: with stat3_rat Stat3, P52631

Row | effect of a mutation on the interaction | Variant
1 | decreasing interaction strength | MEGLRRLLGLLLVLYRLCSALGKNLEPVTWNSQNPRFISGKGLVLYPEIGDRLDIICPKGDSSQPYEYYKLYMVRRDQLEACSTVIDPNVLVTCNQPGKEYRFTIKFQEFSPNYMGLEFRRNQDYYITSTSNSTLQGLENREGGVCQTRSMKIIMKVGQDPNAVPPEQLTTTRPSKEADNTGKIATFGPWNGPVENPGKSDTNLSDKPTAGGGVDGFFNSKIAVFAAIGAGCVIFILIIIFLVVLLIKIRKRHRKHTQQRAAALSLSTLASPKCSGNAGSEPSDIIIPLRTTENNFCPHYEKVSGDFGHPVFIVQEMPPQSPANIYYKV [Y296F;Y307F;Y312F]
2 | decreasing interaction strength | MEGLRRLLGLLLVLYRLCSALGKNLEPVTWNSQNPRFISGKGLVLYPEIGDRLDIICPKGDSSQPYEYYKLYMVRRDQLEACSTVIDPNVLVTCNQPGKEYRFTIKFQEFSPNYMGLEFRRNQDYYITSTSNSTLQGLENREGGVCQTRSMKIIMKVGQDPNAVPPEQLTTTRPSKEADNTGKIATFGPWNGPVENPGKSDTNLSDKPTAGGGVDGFFNSKIAVFAAIGAGCVIFILIIIFLVVLLIKIRKRHRKHTQQRAAALSLSTLASPKCSGNAGSEPSDIIIPLRTTENNFCPHYEKVSGDYGHPVFIVQEMPPQSPANIYYKV [Y296F;Y312F]

Variants of: B2
Conditions: with efnb1_xenla efnb1, O13097

Row | effect of a mutation on the interaction | Variant
3 | disrupting interaction strength | R609L

Reference: IntAct's records for PubMed 17954917
